Publication PMC5551578 (The Journal of Experimental Medicine, 2017)

B1: TT-Ab12 (antibody, V domains shown)
VH: QVQLQESGPGLVKPSETLSLTCNVSGASISRYYWAWIRQPPGKGLEWIGYIYDSGTTTYNTSLKSRVTISRDTSKNQFSLNMMSVTAADTAVYYCARARYYYDSTGYFYGWLDPWGQGRLVTVSF
VL: DIQMTQSPSTLSASVGDRVTITCRASQSINIWLAWYQQRPGKAPDLLIYKASTLQSGVPSRFSGSGSGTEFTLTISSVQPDDFATYYCQQYKSYSCSFGQGTKVEIN
notes: IgG1
B2: TT-Ab3 (antibody, V domains shown)
VH: EVQLVQSGAEVKKPGSSVKVSCKVSGGAFNSYAISWVRQAPGQGLEWMGGIIPILRTANYTEKFQGRVTINADKSTNTAYMELSKLRSEDTAVYYCARVWGTTVTKGPSQIKYYYYGMDVWGQGTTVTVSS
VL: DIQMTQSPSSLSASVGDRVTISCRASQSISNYLNWYHQKPGKAPKLLIYAASSLQSGVPSRFSGSGSGTDFTLTISSLQPEDFATYYCQQSYSTPLTFGGGTKVEIK
notes: IgG1
B3: TT-Ab7 (antibody, V domains shown)
VH: EVQLVESGGGWVQPGGSLRLSCAASGFTFNSFGSYGMSWVRQAPGKGLEWVSHISASGAATYYADSVKGRFTISRDNSKNTLLLQMNDLRGEDTATYYCARSVQQYLGLLGYWGQGTLVTVSS
VL: QSVLTQSPSASASLGATVKLTCTLSSGHTNYAIAWHQLQPQKAPRYLLKISNDGSHKRGDGIPDRFSGSSSGAERYLTISSLQSEDEAEYYCQTWGAGMGMFGGGTKLTVL
notes: IgG1
B4: TT-Ab10 (antibody, V domains shown)
VH: EVQLVESGGGLVQPGGSLRVSCGASGFTFANFWMSWVRQAPGKGLEWVANINQDGNERKYVDSVKGRFTISRDNDKNSLYLQMNSLRAEDTAVYFCAREYGSYWRTYYFDDWGQGTLVTVSS
VL: DIVMTQSPATLSLSPGERATLSCRASQSVSNYLAWYQQKPGQAPRLLIYDASNRASGTPARFSGSGFGTDFTLTISSLDPEDFAVYYCQQGSNWLTFGGGTKVEIK
notes: IgG1
B5: TT-Ab9 (antibody, V domains shown)
VH: EVQLVESGGSLVQPGGSLRLSCVGTGFTFNTYWMSWVRQAPGKGLEWVANIKQDGREKHYVDSVMGRFTVSRDNAMNALYLQVNSLRVEDTAVYYCARGMTAWSLGGYQYDYWGQGTQVTVSS
VL: DIQMTQSPSSLSASVGDTVTITCRASQGIRSDLGWYQQRPGKAPKLLVYTASTLQTGVPSRFSGSGFGTDFTLTISSLQPEDFATYYCLQNYNYPRTFGQGTKVEIK
notes: IgG1
B6: TT-Ab4 (antibody, V domains shown)
VH: EVQLVQSGAEMKKPGSSVKVSCRMSGGKFNNYAMSWVRQAPGQGLEWVGGIIPVLGTANYAQKFQDRVAITADKSTNTAYMELSSLRSDDTAVYYCARVWGTVVTQGPSQVQYNHYGMDVWGQGTTVTVSS
VL: DIQLTQSPSSLSASVGDRVTITCRATQSISSSLNWYQHKPGKAPNLLISAASNLQSGVPSRFSGSGSRTDFTLTITNLQPEDFATYYCQQSYTTPLTFGGGTKVEIK
notes: IgG1

What follows are binders tested against T1, tetanus toxoid (Clostridium tetani, production strain …, UniProt P04958, biotin (biotinylated antigen)) (assay: BLI).
T1 construct: also called TT
T1 sequence (P04958 whole entry): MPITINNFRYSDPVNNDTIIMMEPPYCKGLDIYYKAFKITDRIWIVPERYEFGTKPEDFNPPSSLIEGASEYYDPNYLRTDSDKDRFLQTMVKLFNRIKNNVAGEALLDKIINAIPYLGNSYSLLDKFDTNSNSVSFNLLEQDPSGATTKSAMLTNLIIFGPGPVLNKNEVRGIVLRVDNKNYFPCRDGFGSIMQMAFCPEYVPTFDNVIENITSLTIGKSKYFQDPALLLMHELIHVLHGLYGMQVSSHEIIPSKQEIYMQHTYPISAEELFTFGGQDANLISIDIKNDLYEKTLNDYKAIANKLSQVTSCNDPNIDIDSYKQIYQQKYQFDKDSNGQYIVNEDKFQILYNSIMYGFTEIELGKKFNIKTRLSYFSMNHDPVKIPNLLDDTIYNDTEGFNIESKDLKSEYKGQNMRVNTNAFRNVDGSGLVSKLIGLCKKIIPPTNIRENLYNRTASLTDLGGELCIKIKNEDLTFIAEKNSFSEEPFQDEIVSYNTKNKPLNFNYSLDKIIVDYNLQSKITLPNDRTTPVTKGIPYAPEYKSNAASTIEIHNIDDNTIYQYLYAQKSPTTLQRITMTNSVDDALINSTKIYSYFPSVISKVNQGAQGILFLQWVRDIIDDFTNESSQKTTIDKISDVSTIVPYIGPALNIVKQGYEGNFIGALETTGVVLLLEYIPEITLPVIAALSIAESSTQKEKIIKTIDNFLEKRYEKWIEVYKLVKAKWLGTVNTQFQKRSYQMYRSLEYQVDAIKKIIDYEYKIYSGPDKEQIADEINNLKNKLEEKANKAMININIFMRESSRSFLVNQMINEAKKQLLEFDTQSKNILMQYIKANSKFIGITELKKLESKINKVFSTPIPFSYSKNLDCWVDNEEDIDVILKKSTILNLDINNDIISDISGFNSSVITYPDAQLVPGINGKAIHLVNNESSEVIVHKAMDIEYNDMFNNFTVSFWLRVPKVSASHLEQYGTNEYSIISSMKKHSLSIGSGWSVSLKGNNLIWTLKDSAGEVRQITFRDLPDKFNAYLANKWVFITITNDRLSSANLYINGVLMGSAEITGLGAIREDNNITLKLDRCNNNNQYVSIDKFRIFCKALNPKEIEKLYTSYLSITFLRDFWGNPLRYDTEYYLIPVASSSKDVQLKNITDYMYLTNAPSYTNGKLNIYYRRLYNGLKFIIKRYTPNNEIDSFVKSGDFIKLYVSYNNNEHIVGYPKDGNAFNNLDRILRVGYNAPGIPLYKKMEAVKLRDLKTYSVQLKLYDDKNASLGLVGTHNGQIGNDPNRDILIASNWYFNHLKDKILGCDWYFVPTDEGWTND

**Q.** What does the source list for B1?
**A.** Kd: 1.95 nM; koff: 0.000307 s⁻¹

**Q.** Which results are given for B2?
**A.** Kd: 1.61 nM; koff: 0.00013 s⁻¹

**Q.** How did the Kd turn out when B3 was run?
**A.** The Kd was 0.0185 nM.

**Q.** And the koff?
**A.** The koff was 3.46e-06 s⁻¹.

**Q.** For B4, which Kd is on record?
**A.** Its Kd is 1.59 nM.

**Q.** And the koff?
**A.** The koff was 0.000243 s⁻¹.

**Q.** Which results are given for B5?
**A.** Kd: 6.64 nM; koff: 0.000919 s⁻¹

**Q.** With B6 as the binder, how does the Kd read?
**A.** Its Kd is 0.0137 nM.

**Q.** And the koff?
**A.** Its koff is 2.27e-06 s⁻¹.
